Results on 29 substances are retold here after patent US6355619B1, “Peptide tumor cell growth inhibitors” (Board of Regents, The University of Texas System, priority 1996, dated 2002).

In experiment [1] the target is IL-8 receptors on human neutrophils (human). The experiment can be described thus: inhibition of 125I-IL-8 binding to human neutrophils; peptide concentration not given.
The target is the same in experiment [2]. Kind of experiment: cell-based or functional assay.
Experiment [3] has as its target MGSA/GROα receptors on Hs 294T melanoma cells. Kind of experiment: cell-based or functional assay.
The target in experiment [4] is MGSA/GROα receptors on RPMI-7951 melanoma cells. The experiment can be described thus: cell-based or functional assay.
The target of experiment [5] is IL-8 receptors on human neutrophils (human). The experiment can be described thus: inhibition of IL-8 binding to human neutrophils.
Experiment [6] has as its target MGSA/GROα receptors on Hs 294T melanoma cells. The experiment can be described thus: inhibition of 1 nM 125I-MGSA/GROα binding to Hs 294T cells.
Experiment [7] concerns the target MGSA/GROα receptors on RPMI-7951 melanoma cells. The experiment can be described thus: inhibition of 1 nM 125I-MGSA/GROα binding to RPMI-7951 cells.
Experiment [8] has as its target IL-8 receptors on human neutrophils (human). Kind of experiment: inhibition of 125I-IL-8 binding to human neutrophils, peptide 10 µM.
The target is the same in experiment [9]. Kind of experiment: inhibition of 125I-IL-8 (10^-12 M) binding to human neutrophils, peptide 100 µM.
Experiment [10] shares this target. The experiment can be described thus: inhibition of binding of 1 nM IL-8 to human neutrophils, 90 min on ice (FIG. 10).
The target is the same in experiment [11]. Kind of experiment: inhibition of 1 nM 125I-IL-8 binding to human neutrophils, 90 min 4 °C, average of replicates.
Experiment [12] has the same target. The experiment can be described thus: inhibition of 125I-IL-8 binding to human neutrophils, assuming purely competitive single site model.
For experiment [13] the target is unchanged. The experiment can be described thus: inhibition of 125I-IL-8 binding to human neutrophils, method of Example I; reference row of the heptamer table.
Experiment [14] has the same target. The experiment can be described thus: inhibition of 125I-IL-8 binding to human neutrophils.
The target is the same in experiment [15]. Kind of experiment: inhibition of 125I-IL-8 binding to human neutrophils, method of Example I; D-amino acid heptamer series.
The test system of experiment [16] is MGSA/GROα receptors on Hs 294T melanoma cells. Kind of experiment: Binding of 125I-MGSA/GROα to Hs 294T melanoma cells. More on the design: species or system human. As to the method:
(§1) FIG. 11A. The binding of ^125I-labeled MGSA/GROα to melanoma cell lines, Hs 294T and RPMI-7951. The melanoma cells, 1×10^5, were incubated with 1 nM ^125I-MGSA/GROα in the presence of various concentrations of unlabeled MGSA/GROα. Binding inhibition curve with Hs 294T (closed circles) and RPMI-7951 (open circles). The lines shown in the graph are the best fit curves calculated using the London II computer program.
(§2) FIG. 13. The effect of Antileukinate on the binding of radiolabeled MGSA/GROα to the melanoma cell lines. The melanoma cells, Hs 294T (closed circles) and RPMI-7951 (open circles), were incubated with 1 nM ^125I-MGSA/GROα in the presence of different concentrations of Antileukinate. The lines shown in the graph are the best fit curves calculated using the London II computer program.
(§3) Recombinant human MGSA/GROα and IL-8 were purchased form Pepro Tech Inc. (Rocky Hill, N.J.) and radioactively labeled using ^125I-labeled Bolton-Hunter reagent (DuPont-NEN, Wilmington, Del.) (Bolton and Hunter, 1973). The labeled proteins were isolated using Sephadex G-25 column (Column PD-10, Pharmacia) pre-equilibrated with PBS containing 0.1% gelatin and stored at −70° C. after the addition of 1% bovine serum albumin.
(§4) Binding studies with melanoma cell lines were performed by the method of Horuk and colleagues (Horuk et al., 1993). Briefly, the cells (1×10^5 cells/well) in 24-well plates were washed two times with Hank's Balanced Salt Solution and incubated with ^125I-labeled MGSA/GROα or IL-8 in the buffer containing 1% bovine serum albumin at 4° C. for 3 hr. The incubation was terminated by vacuum aspiration of the supernatant. The cells were washed three times in binding buffer, solubilized by the addition of 200 μl of 1% SDS, and transferred to vials for counting. The non-specific binding was estimated by measuring the binding in the presence of 100-fold excess of non-labeled ligand. The binding parameters were calculated using the Lundon II computer program (Lundon Software Inc., Chagrin Falls, Ohio).

Experiment [17] has as its system MGSA/GROα receptors on RPMI-7951 melanoma cells. The experiment can be described thus: Binding of 125I-MGSA/GROα to RPMI-7951 melanoma cells. The following applies: RPMI-7951. How it is done: as §1, §2, §3, §4
Experiment [18] addresses IL-8 receptors on human neutrophils (human). The experiment can be described thus: saturation binding of 125I-IL-8 to human neutrophils, Lundon I, one-site model, no peptide.
Experiment [19] concerns the target Receptor 1 (Table 3; class of IL-8 receptors on human neutrophils, two-site model, Lundon II) (human). Kind of experiment: displacement of 1 nM 125I-IL-8 by unlabeled IL-8 on human neutrophils, Lundon II two-site model, IL-8 alone.
Experiment [20] addresses Receptor 2 (Table 3; class of IL-8 receptors on human neutrophils, two-site model, Lundon II) (human). Described as above.
Experiment [21] deals with Receptor 1 (Table 3; class of IL-8 receptors on human neutrophils, two-site model, Lundon II) (human). Kind of experiment: displacement of 1 nM 125I-IL-8 by unlabeled IL-8 on human neutrophils, Lundon II two-site model, +10 µM Ac-RRWWCR.
For experiment [22], the target named is Receptor 2 (Table 3; class of IL-8 receptors on human neutrophils, two-site model, Lundon II) (human). The description is as above.
Experiment [23] addresses Receptor 1 (Table 2; class of IL-8 receptors on human neutrophils, two-site model, Lundon I) (human). Kind of experiment: saturation binding of 125I-IL-8 to human neutrophils, Lundon I, two-site model, in presence of 10 µM Ac-RRWWCR-NH2.
The target of experiment [24] is Receptor 2 (Table 2; class of IL-8 receptors on human neutrophils, two-site model, Lundon I) (human). The experiment is described as above.
The target in experiment [25] is Receptor 1 (Table 2; class of IL-8 receptors on human neutrophils, two-site model, Lundon I) (human). The experiment can be described thus: saturation binding of 125I-IL-8 to human neutrophils, Lundon I, two-site model, in presence of 20 µM Ac-RRWWCR-NH2.
Experiment [26] addresses Receptor 2 (Table 2; class of IL-8 receptors on human neutrophils, two-site model, Lundon I) (human). The experiment is described as above.
Experiment [27] concerns the target Receptor 1 (Table 2; class of IL-8 receptors on human neutrophils, two-site model, Lundon I) (human). The experiment can be described thus: saturation binding of 125I-IL-8 to human neutrophils, Lundon I, two-site model, in presence of 40 µM Ac-RRWWCR-NH2.
Experiment [28] deals with Receptor 2 (Table 2; class of IL-8 receptors on human neutrophils, two-site model, Lundon I) (human). The description is as above.
Experiment [29] deals with MGSA/GROα receptors on Hs 294T melanoma cells. The experiment can be described thus: 1 nM 125I-MGSA/GROα displaced by unlabeled MGSA/GROα on Hs 294T cells, Lundon II.
Experiment [30] addresses MGSA/GROα receptors on RPMI-7951 melanoma cells. Kind of experiment: 1 nM 125I-MGSA/GROα displaced by unlabeled MGSA/GROα on RPMI-7951 cells, Lundon II.

“And” between values parts separate entries of the source, which are not always exact repeats. Equal values may be shown once.

Sequence of Recombinant human IL-8 (72 amino acids) (P10145 28-99 limits assumed): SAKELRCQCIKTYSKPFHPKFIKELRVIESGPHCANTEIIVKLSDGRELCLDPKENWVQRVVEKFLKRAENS
Sequence of Recombinant human MGSA/GROα (P09341 35-107): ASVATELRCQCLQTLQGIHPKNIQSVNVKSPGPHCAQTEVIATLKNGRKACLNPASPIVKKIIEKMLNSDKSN

With Ac-KELRCQ-NH2 (peptide), the % Binding Inhibition in experiment [1] is -0.4%.
Regarding Ac-RRWWCR-NH2 (peptide), in experiment [2], the chemotaxis of neutrophils stimulated with 10 nM of IL-8 was 50 µM. In addition, the enzyme release from neutrophils stimulated by IL-8 in experiment [2] was determined as 0.8 µM. The β-glucuronidase release stimulated by 100 nM of IL-8 in experiment [2] was determined as 2 µM. The growth of Hs 294T cells (cell number after 72 hr) in [3] is 18 µM and 10 µM. Also, the growth of melanoma cells in culture in [3] and in [4] was 100 µM in each case. The substance further registered a growth of RPMI-7951 melanoma cells (cell number after 72 hr) in experiment [4] of 31 µM. The same substance registered a fold effectiveness against the non-acetylated peptide in experiment [5] of 2 fold. In addition, the EC50 in experiment [6] was determined as 1000 nM; in [7], 1000 nM; in experiment [10], 25000 nM; in experiment [11], 13700 nM. This substance returned a % inhibition in experiment [8] of 20%. The % INHIB. in experiment [9] and in experiment [13] was 112% throughout. Moreover, the % Binding Inhibition in experiment [1] was 98.6%. Also, the Ki in experiment [12] was 10000 nM.
The substance Ac-rrwwcrc-NH2 (peptide) had a fold potency against Ac-rrwwcr-NH2 (SEQ ID NO:1) in experiment [14] of 4 fold. This substance returned a % of IL-8 binding prevented in experiment [8] of 80%. Also, the % INHIB. in experiment [15] stood at 108%.
For the substance “MGSA/GROα: Recombinant human MGSA/GROα (Pepro Tech Inc.), 73 amino acid α-chemokine”, the Kd in [16] was approximately 6 nM; in experiment [17], approximately 3 nM. The “maximal binding (Bmax) of MGSA/GROα” value in [16] is listed as 11 fmole/10^5 cells; in experiment [17] it was 15 fmole/10^5 cells.
RRWWCT (peptide) had a % INHIB. in [9] of 88.4%.
In experiment [9], RRWWCV (peptide) showed a % INHIB. of 81.1%.
The same measure, in the same setting: to RRWWCW (peptide) belongs 66.4%; to RRWWCY (peptide), 77.9%.
As for “Recombinant human IL-8 (72 amino acids) (from UniProt P10145 28-99) (ligand)”, the Bmax (fmole/10^6 cells) came out at 174 in [18]; 38.8 in experiment [19]; 68.8 in [20]; 11.2 in [21]; 75.6 in [22]; 91.9 in [23]. For the same substance, the Bmax (fmole/10^6 cells) in [24] is 90.9; in experiment [25] it was 90.9; in experiment [26] it was 76.2; in [27], 82; in experiment [28], 44.2. Also, the Kd in [18] is 1.3 nM; in experiment [19], 0.03 nM; in experiment [20], 0.67 nM; in [21] it was 1.23 nM; in experiment [22] it was 0.76 nM; in experiment [23], 68 nM. The Kd in experiment [25] worked out at 42.8 nM; in [26], 0.8 nM; in experiment [27] it was 13 nM; in [28], 1.3 nM.
“Recombinant human MGSA/GROα (from UniProt P09341 35-107) (ligand)”: the reversal of the inhibition of Hs 294T growth by 50 µM Antileukinate in experiment [3] came to 50 nM. In experiment [29], this substance had a Kd of 6 nM and a maximal binding (Bmax) (fmole/10^5 cells) of 11. Also, in experiment [30], the dissociation constant (Kd) was 3 nM and the maximal binding (Bmax) (fmole/10^5 cells) amounted to 15.
In the case of rrwwcra (peptide), the % INHIB. in [15] is 95.3%.
On the same count and under the same terms, the same measure for rrwwcrd (peptide): 107%; for rrwwcre (peptide): 99.1%.
The same measure, in the same setting: to rrwwcrf (peptide) belongs 106%; to rrwwcrg (peptide), 108%; to rrwwcrh (peptide), 107%.
In the case of rrwwcri (peptide), the % INHIB. in experiment [15] is 93.9%.
Same read-out and setting: the same measure for rrwwcrk (peptide): 113%; for rrwwcrl (peptide): 99.1%; for rrwwcrm (peptide): 96.2%.
On the same count and under the same terms, to rrwwcrn (peptide) belongs 111%; to rrwwcrp (peptide), 87.3%; to rrwwcrq (peptide), 89.2%.
Still for that read-out and setting: to rrwwcrr (peptide) belongs 103%; to rrwwcrs (peptide), 70.4%; to rrwwcrt (peptide), 56.3%.
In [15], rrwwcrv (peptide) came in with a % INHIB. of 89.2%.
On the same count and under the same terms, to rrwwcrw (peptide) belongs 106%.
In turn, rrwwcry (peptide) yielded a % INHIB. in [15] of 85.4%.
